Data set [1] deals with T1, KAP (Homo sapiens, UniProt Q16667).
T1 construct: Full-length KAP protein was coupled to a sensor chip CM-5 shell; made in house
T1 sequence (Q16667 1-212): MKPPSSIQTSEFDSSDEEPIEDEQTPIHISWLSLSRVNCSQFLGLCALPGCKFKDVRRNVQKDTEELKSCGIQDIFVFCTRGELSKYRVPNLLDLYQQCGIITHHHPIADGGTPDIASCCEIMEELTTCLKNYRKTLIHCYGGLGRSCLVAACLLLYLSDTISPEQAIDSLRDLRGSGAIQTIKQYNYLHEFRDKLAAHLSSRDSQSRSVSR
Briefly: Circular dichroism spectroscopy of KAP. Conditions: 5 μM KAP, 50 μM HTm4 C-peptide, 250 to 320 nm. As for the experimental part:
Circular Dichroism (CD) spectroscopic measurements were performed on a Jasco J-700 (Jasco, Japan). Spectra measurements were recorded from 250 to 320 nm. The spectra change of KAP was measured by comparing two different KAP samples in the same solution (20 mM Tris-HCl, pH 7.2, 0.15 M NaCl). Sample A contained 5 μM KAP and an excess amount of HTm4 C-peptide (50 μM). The contents of sample B were identical to those in sample A, except for HTm4 C-peptide. The difference in spectra was further converted to parameter (mean residue ellipticity) and plotted on the graph in FIG. 4.
Spectra measurements were recorded from 250 to 320 nm. The spectra change of KAP was measured by comparing two different KAP samples in the same solution (20 mM Tris-HCl, pH 7.2, 0.15 M NaCl). Sample A contains 5 μM KAP and an excess amount of HTm4 C-peptide (50 μM). Sample B was formulated as Sample A, with the exception of the HTm4 C-peptide. The difference in spectra was further converted to parameter (mean residue ellipticity) and plotted.
For orientation: Circular dichroism is the unequal absorption of left and right circularly polarised light.

The target of data set [2] is T2, KAP phosphatase (Homo sapiens, UniProt Q16667). Briefly: KAP phosphatase activity assay, hydrolysis of pNPP. It is filed as biochemical. As to the method: KAP phosphatase activity was examined by the detection of hydrolysis of p-nitrophenyl phosphate (pNPP) (WAKO) as described previously (Song, H., Hanlon, N., Brown, N. R., Noble, M. E., Johnson, L. N., and Barford, D. (2001) Mol. Cell. 7, 615-626). The time course of phosphatase activity for KAP was examined. 20 μl of reaction mixture containing 50 mM Tris-HCl, pH 7.5, 0.15 M NaCl, 2 mM DTT, 0.5 mM EDTA, 3 mM pNPP, 40 μM KAP, 4 μM cdk cyclin A (Upstate Biotechnology), and 20 μM HTm4 was incubated at 30° C. for the indicated times. The reaction was halted by the addition of 0.1 M NaOH. The phosphatase activity in 5 μl of each sample was measured as A410. To investigate the effect of HTm4 on KAP, KAP phosphatase activity was assessed with different HTm4 concentrations in the presence of pNPP. Reaction velocity was measured in the presence of 0.0025-20 μM HTm4.
(§1) 20 μl of reaction mixture containing 50 mM Tris-HCl, pH 7.5, 0.15 M NaCl, 2 mM DTT, 0.5 mM EDTA, 3 mM pNPP, 40 μM KAP, 4 μM cdk2.cyclin A, and 20 μM HTm4 was incubated at 30° C. for the indicated times. The reaction was halted by the addition of 0.1 M NaOH. The phosphatase activity in 5 μl of each sample was measured at 410 nm. […] KAP phosphatase activity was assessed in the presence of increasing amounts of HTm4 using pNPP as the KAP substrate. The reaction velocity was measured in the presence of 0.0025-20 μM HTm4. All reaction mixtures contained 40 μM KAP and 4 μM active cdk2.cyclin A. Reactions were repeated in triplicate. Their average values and standard deviations are shown. […] KAP phosphatase activity was assessed using the Ser/Thr Assay Kit 1 with different concentrations of active cdk2.cyclin A (from 4 to 20 μM) as the substrate in the presence or absence of 40 μM HTm4. […] KAP phosphatase activity was assessed using the Ser/Thr Assay Kit 1 with different concentrations of active cdk2.cyclin A (from 4 to 20 μM) as the substrate in the presence or absence of 40 μM HTm4.

For data set [3], the target named is T1, KAP. The experiment in a line: Surface plasmon resonance (BioSensor Biacore) protein interaction assay. Format: binding. Conditions: for binding to KAP-coupled sensor chip (increase in mass): versus uncoupled or nonspecifically coupled chips. As to the method: The immobilization of proteins to sensor chips (CM-5 chip) was performed using a carbodiimide covalent linkage protocol (Amersham Biosciences). KAP was coupled to the sensor chip at 2,800 resonance units (RU). Nonspecific human immunoglobin was coupled to the surface of the sensor chip (anti-β 2m antibody BBM.1) at 2,900 RU. Protein interaction assays were carried out using the BioSensor Biacore 2000 (Biacore). An HTm4 C-terminal peptide composed of 22 amino acids ([…] SEQ ID NO:3) was synthesized. Either full-length HTm4 protein (20 μM), or HTm4 C-terminal peptide (1 mM) in 50 mM HEPES containing 1 mM EDTA, 1 mM DTT, 5% glycerol, and 0.1% Tween 20 was examined at a flow rate of 10 μl/min.
Surface plasmon resonance was used to detect direct binding of purified HTm4 to KAP. Full-length KAP protein was coupled to a sensor chip CM-5 shell (Amersham Biosciences).
The interactions of HTm4 with immobilized proteins were analyzed on a sensor chip (CM-5) cell. KAP was coupled to the surface of the sensor chip at 2,800 RU; nonspecific human immunoglobulin (NS) was coupled to the surface of the sensor chip (anti-β2m antibody BBM.1) at 2,900 RU; UC, uncoupled sensor chip. Binding of 20 μM full-length HTm4 protein in 50 mM HEPES containing 1 mM EDTA, 1 mM DTT, 5% glycerol, and 0.1% Tween 20 was examined at a flow rate of 10 μl/min. […] The interactions of HTm4 with immobilized proteins were analyzed on a sensor chip (CM-5) cell. KAP was coupled to the surface of the sensor chip at 2,800 RU; nonspecific human immunoglobulin was coupled on the surface of the sensor chip (anti-β 2m antibody BBM.1) at 2,900 RU. Binding of 1 mM HTm4 C-terminal peptide in 50 mM HEPES containing 1 mM EDTA, 1 mM DTT, 5% glycerol, and 0.1% Tween 20 was examined at a flow rate of 10 μl/min. Responses from uncoupled cells were subtracted.
For orientation: In SPR one partner is held on a chip, and binding of the other changes the refractive index at the surface.

Data set [4] deals with T2, KAP phosphatase. The experiment in a line: Kinetic measurements of KAP phosphatase with active cdk2.cyclin A as substrate (Lineweaver-Burk plot). Format: biochemical. Particulars: 40 μM HTm4, active cdk2.cyclin A 4 to 20 μM as substrate. As for the experimental part: To investigate the effect of HTm4 on KAP, the initial reaction velocity of KAP was assessed using different concentrations of active cdk2.cyclin A as the substrate in the presence or absence of HTm4. The results were analyzed further using a Lineweaver-Burk plot.
as §1

Data set [5] concerns the target KAP.cdk2.cyclin A complex (Homo sapiens, UniProt Q16667). Briefly: Cyclin A dissociation assay. Conditions: 1 or 10 μM HTm4 without His tag, His-tagged KAP pull-down. It is filed as biochemical. As to the method: The status of the cdk2.cyclin A complex was examined in the presence and absence of HTm4. […] The bound fractions were resolved by SDS-PAGE and Western blotted for the presence of cyclin A (Santa Cruz Biotechnology). An alkaline phosphatase conjugated to anti-rabbit IgG (EY Laboratory) was used to visualize the amount of bound cyclin A present in the KAP cdk2 complex. […] After incubating at room temperature for 5 min, either 10 μl of 10 μM HTm4 (without His tag) or its buffer was added to the reaction mixture. After incubating at room temperature for 5 min, 5 μl of nickel magnet beads was added to each mixture. […] The gel was stained with a silver staining kit (ATTO).
After that, 5 μl of nickel magnet beads was added. Bound fractions were electrophoresed by SDS-PAGE and then detected by Western blotting with anti-cyclin A antibody as the primary antibody, and alkaline phosphatase-conjugated anti-rabbit IgG was used as the secondary antibody. The band of cyclin A is indicated with an arrow. […] After incubation at room temperature for 5 min, 10 μl of 10 μM HTm4 (without His tag) or its buffer was added to the mixture and allowed to incubate at room temperature for 5 mins. 5 μl of nickel magnet beads was added to each mixture. […] The gel was then silver stained. Bands of cyclin A, cdk2, and KAP are indicated with arrows.

For data set [6], the target named is T3, KAP phosphatase (Homo sapiens, UniProt Q16667).
T3 construct: made in house
T3 sequence (Q16667 1-212): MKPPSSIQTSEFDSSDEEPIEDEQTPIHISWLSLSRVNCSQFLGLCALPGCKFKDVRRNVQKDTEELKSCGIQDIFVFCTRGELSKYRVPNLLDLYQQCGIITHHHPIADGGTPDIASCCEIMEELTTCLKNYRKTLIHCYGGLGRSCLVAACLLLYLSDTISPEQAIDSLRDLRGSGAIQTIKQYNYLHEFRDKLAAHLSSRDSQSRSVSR
The experiment in a line: KAP dephosphorylation of peptide or protein substrates (Ser/Thr Phosphatase Assay Kit 1). It is filed as biochemical. Conditions: 30 min at 30° C. As for the experimental part: KAP dephosphorylation of phosphorylated proteins or peptide substrates was examined using the Ser/Thr Phosphatase Assay Kit 1 (Upstate Biotechnology) according to the manufacturer's instructions. Phosphorylated Thr^160 of cdk2 and K-R-pT-I-R-R peptide were used as substrates for the assay. Concentrations of KAP and HTm4 were both 20 μM; concentrations of p-cdk2 and peptide substrates (K-R-pT-I-R-R) were 10 and 25 μM, respectively. Reactions were performed in pNPP Ser/Thr Assay Buffer, containing 50 mM Tris-HCl, pH 7.0, and 100 μM CaCl2. To examine the importance of the HTm4 C-terminal region and to confirm the KAP phosphatase activity enhancement effect of HTm4, an HTm4 C-terminal peptide composed of 22 amino acids ([…] SEQ ID NO:3) was synthesized. The phosphatase enhancement activity of the HTm4 C-terminal region was examined using the assay protocol described above.
KAP dephosphorylation of phosphorylated proteins or peptide substrates was examined using the Ser/Thr Phosphatase Assay Kit 1 according to the manufacturer's instructions. Phosphorylated Thr^160 of cdk2 (p-cdk2) and K-R-pT-I-R-R peptides (SEQ ID NO:4) were used as substrates for the assay. […]
Phosphorylated threonine 160 from cdk2.cyclin A, active, and phosphopeptide (K-R-pT-I-R-R) were used as substrates to assess KAP activity. […] The reaction was allowed to proceed for 30 min at 30° C., and absorbance was measured at 650 nm.

Turning to “CNANCCNSREEISSPPNSV (Synthetic HTm4 C-terminal Peptide) [HTm4 C-peptide]”, the “CD difference spectrum of KAP with versus without C-peptide” value in data set [1] is listed as “spectral change was found at 270-280 nm”. In addition, the “enhancement effect on KAP phosphatase activity compared with HTm4 wild-type protein” value in data set [2] (C-terminal peptide at 0.1 mM, pNPP substrate) was “comparable enhancement effect”. Further, the “binding to KAP-coupled sensor chip (increase in mass)” value in data set [3] (1 mM HTm4 C-terminal peptide, flow rate 10 μl/min) is given as “immediate increase in mass was observed”.

B1: HTm4: Recombinant human HTm4 (MS4A3) full-length protein purified from E. coli, His tag cleaved (protein, listed as Homo sapiens)
chain: MASHEVDNAELGSASAHGTPGSEAGPEELNTSVYQPIDGSPDYQKAKLQVLGAIQILNAAMILALGVFLGSLQYPYHFQKHFFFFTFYTGYPIWGAVFFCSSGTLSVVAGIKPTRTWIQNSFGMNIASATIALVGTAFLSLNIAVNIQSLRSCHSSSESPDLCNYMGSISNGMVSLLLILTLLELCVTISTIAMWCNANCCNSREEISSPPNSV
A word on the Km: it is the substrate concentration at which the rate is half of its maximum. On to B1, for which the “Vmax of KAP phosphatase activity in the presence of HTm4” value in data set [4] is 17.5 nM/min. Besides, the Km in data set [4] (read-out: Km of KAP phosphatase activity in the presence of HTm4) stood at 8.33 µM. Besides, in data set [2] (20 μM HTm4, wild-type KAP, 4 μM active cdk2.cyclin A), the “KAP phosphatase activity toward pNPP substrate” value was “significantly enhanced”. Moreover, the “effect of increasing HTm4 on KAP phosphatase activity (reaction velocity)” value in data set [2] (0.0025-20 μM HTm4, pNPP substrate, 40 μM KAP, 4 μM active cdk2.cyclin A) was “linearly increased”. Besides, the “binding to KAP-coupled sensor chip (increase in mass)” value in data set [3] (20 μM full-length HTm4, flow rate 10 μl/min) was “immediate increase in mass was observed”. The “KAP/HTm4 selective binding after premixing HTm4 with KAP” value in data set [3] (premixed with KAP, data not shown) was “abolished”. The “dissociation of cyclin A from the KAP.cdk2.cyclin A complex” value in data set [5] is listed as “dissociated from the complex in a dose-dependent manner”. The “increase of dephosphorylating activity of KAP toward phosphorylated cdk2” value in data set [6] (20 μM KAP and HTm4, 10 μM p-cdk2 in the cdk2.cyclin A complex) is “more than 6 fold”. For the same molecule, in data set [6] (20 μM KAP and HTm4, 25 μM peptide substrate), the “KAP dephosphorylation of synthesized phosphopeptide K-R-pT-I-R-R” value is reported as “potentiates dephosphorylation”.

The values are drawn from patent US7795217B2, “Methods and compositions for cell-cycle regulation” (priority 2005, dated 2010).
